Measurements from US20140018304A1 (INDUSTRY ACADEMIC COOPERATION FOUNDATION YONSEI UNIVERSITY, published 2014).

How the values were obtained:
[1] = molecular target: T1, GLRX3C, GLRX3 mutant composed of only the C-terminal domains, expressed from 3xFLAG-CMV14/H14C (Homo sapiens, UniProt O76003 134-335); assay: co-expression in HeLa cells, precipitation with Ni-NTA resin, western blot
T1 construct: Deletion construct; not shown: C-terminal 3xFLAG tag of the 3xFLAG-CMV14 vector and the BamHI-site linker to it
T1 sequence: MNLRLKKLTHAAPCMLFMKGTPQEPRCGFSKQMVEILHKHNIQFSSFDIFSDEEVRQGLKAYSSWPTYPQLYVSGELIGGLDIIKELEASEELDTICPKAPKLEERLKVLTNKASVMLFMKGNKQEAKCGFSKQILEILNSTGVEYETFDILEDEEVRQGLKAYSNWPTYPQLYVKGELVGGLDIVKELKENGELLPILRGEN

[2] = molecular target: T2, Bacterial Alkaline Phasphatase (BAP) (UniProt P00634 22-471 = phosphatase); assay: as above
T2 construct: Control
T2 sequence (P00634 22-471): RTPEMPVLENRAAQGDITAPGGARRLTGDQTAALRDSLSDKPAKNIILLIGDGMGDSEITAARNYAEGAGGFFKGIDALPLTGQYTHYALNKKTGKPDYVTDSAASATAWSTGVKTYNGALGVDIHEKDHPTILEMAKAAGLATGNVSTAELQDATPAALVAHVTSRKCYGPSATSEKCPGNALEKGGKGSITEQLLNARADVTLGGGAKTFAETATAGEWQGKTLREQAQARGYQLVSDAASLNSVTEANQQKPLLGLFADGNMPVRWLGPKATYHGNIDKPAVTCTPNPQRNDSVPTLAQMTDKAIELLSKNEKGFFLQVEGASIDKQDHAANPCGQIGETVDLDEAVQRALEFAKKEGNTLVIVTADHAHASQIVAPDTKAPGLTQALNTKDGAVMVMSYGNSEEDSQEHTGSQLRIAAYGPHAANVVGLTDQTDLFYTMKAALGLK
Protocol: Appropriate plasmid combination was transfected into HeLa cells using Lipofectamine Plus (Invitrogen). At 48 hours post-transfection, transfected cells were dissolved in the cell lysis buffer (10 mM Tris, pH 7.5, mM NaCl, 2 mM EDTA, 0.5% Triton X-100, 1 mM PMSF, and protease inhibitor cocktail (Roche Diagnostics, Mannheim, Germany)) to obtain total proteins. For secretary protein preparation, the culture medium was exchanged with a serum-free culture medium at 24 hours post transfection of the plasmid, followed by culturing again for 24 hours, and then the culture medium was collected. The collected culture medium was centrifuged to discard cell components. For immunoprecipitation of His-tagged proteins, 300 μg of total proteins and the culture medium were reacted with the Ni-NTA resin at 4 for 5 hours. After 5 hours, the reacted material was washed five times with a washing buffer (50 mM Tris, pH 7.5, 150 mM NaCl, and 0.5% Triton X-100), and then proteins attached to the resin were dissolved in the SDS sample buffer, followed by SDS-PAGE and then western blotting.

binding result [1]: no binding | binding result [2]: no binding
B1: PAUF-Myc/His from pcDNA3.1(+)-PAUF-Myc/His (other, UniProt Q96DA0 17-172, looked up)
chain: GKMYGPGGGKYFSTTEDYDHEITGLRVSVGLLLVKSVQVKLGDSWDVKLGALGGNTQEVTLQPGEYITKVFVAFQAFLRGMVMYTSKDRYFYFGKLDGQISSAYPSQEGQVLVGIYGQYQLLGIKSIGFEWNYPLEEPTTEPPVNLTYSANSPVGR
notes: In vivo experiment: expressed in HeLa cells, total proteins and culture medium reacted with Ni-NTA resin; also called PAUF-His; His-PAUF; not shown: Myc/His tag of the pcDNA3.1(+)-Myc/His vector (Invitrogen)
